The source of these data is the supplement of paper PMC12042874.

This data set in a line: amyloid nucleation score (Sup35N fusion, yeast selection) (log enrichment); library NNK2; higher = more nucleation; inactive = no reads after selection. The method in brief: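 The nucleation score equals the log enrichment of output over input reads from DiMSum, centred on the mode score of non-aggregating sequences. It was computed only for sequences with 100 or more input reads. The reads came from Illumina sequencing of plasmid inserts from psi-negative yeast expressing Sup35N fused to peptides of 20 random codons, induced with 100 μM copper sulfate for 24 hours and grown 7 days at 30°C without adenine and uracil.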

± gives the uncertainty stated by the source.

As for CVHTAVVRILIRAKKAGLIT, the amyloid nucleation score entry was “inactive”.

With DVVKSVPQTPL, the amyloid nucleation score amounted to 0.851 ± 0.28.

Turning to SFLTYKARTMSSKLVKSIML, the amyloid nucleation score was -0.563 ± 0.76.

Turning to FRCIDFR, the amyloid nucleation score is 0.674 ± 0.65.

For VKGHKRESSWNWRSDGNMWA, the amyloid nucleation score was -0.111 ± 0.61.

RADGSFMKLLA returned an amyloid nucleation score of -0.628 ± 0.5.

The substance MAFVDISSANFRKITRDLLP registered an amyloid nucleation score of 0.82 ± 0.19.

Regarding CDLLVPQRYSAGLPLPVVKE, the amyloid nucleation score turned out to be 1.8 ± 0.24.

Substance ILISRIFIFDNYMIYLCCCG registered an amyloid nucleation score of -0.762 ± 0.79.

As for ICSKRIFFSA, the amyloid nucleation score is -0.772 ± 1.1.

Turning to PFRSS, the amyloid nucleation score was -0.415 ± 0.36.

Turning to RYLSTLSVLYRTTSCRA, the amyloid nucleation score result was “inactive”.

Substance GIMSSELLYYYVRISYESC came in with an amyloid nucleation score of -1.21 ± 0.45.

The substance HIGIWGRQTLR had an amyloid nucleation score of 3.55 ± 0.049.

Consider RRGNWKMSFFRMLTVNP, for which the amyloid nucleation score was -0.488 ± 0.55.

LTVYVFSDFSRATVGPSRWL came in with an amyloid nucleation score of 0.238 ± 0.48.

YIKWQI: the amyloid nucleation score amounted to 2.94 ± 0.065.

As for ARFASIWVWTLGDCWRKCSY, the amyloid nucleation score is -0.152 ± 0.76.

In the case of FSCHWAIMTRSGKVEVCNNQ, the amyloid nucleation score is 5.47 ± 0.069.

Consider YSYVIWYMHHCFWLNLRKFM, for which the amyloid nucleation score came out at 0.979 ± 0.67.

With TNSALGSMVYELGRPLVWFF, the amyloid nucleation score result was “inactive”.

For TMYFWLMSLVWLLSVSFRAW, the amyloid nucleation score stood at 2.54 ± 0.1.

For the substance VVSSSTSFTAGTRVM, the amyloid nucleation score entry is “inactive”.

As to MTFAT, the amyloid nucleation score was -1.51 ± 1.1.

For the substance GYRYHLWHVT, the amyloid nucleation score result was “inactive”.

SLVLV had an amyloid nucleation score of 0.803 ± 0.47.

In turn, SVSGTLFPGYCWGNGKAGHF showed an amyloid nucleation score of 1.56 ± 0.091.

With GHLRYTIDTGTTSGSSDLMS, the amyloid nucleation score was -0.842 ± 0.63.

For GGSRTRSCQDRAHEGGK, the amyloid nucleation score was found to be 0.949 ± 0.74.

In turn, YLLYGWYTMLALHLALREHI gave an amyloid nucleation score of -0.098 ± 0.79.

Substance RWMILSFSLAWVSMSFENNM returned an amyloid nucleation score of 0.784 ± 0.18.

As to DFSLSGCPGMNRGDYDLHSK, the amyloid nucleation score result was “inactive”.

Turning to SIIYISWSVRHHYVKVG, the amyloid nucleation score is -0.666 ± 0.46.

On to FIARDRLMTDRTRGKPSWEG, for which the amyloid nucleation score is 0.231 ± 0.3.

On to SYFWRYFM, for which the amyloid nucleation score was determined as 0.087 ± 0.79.

With CSFYRSWVLTNWSANVVFTW, the amyloid nucleation score is -0.217 ± 0.39.

On to FLWHCYNFLKAGS, for which the amyloid nucleation score entry was “inactive”.

With TYSGEIKL, the amyloid nucleation score result was “inactive”.

As to PNERFVSTLWCRDVCDPWSW, the amyloid nucleation score came to 0.798 ± 0.51.

With FRFPFFVQWFFCLSGSQRAR, the amyloid nucleation score result was “inactive”.

On to LGLPNNGL, for which the amyloid nucleation score was -0.187 ± 0.55.

In the case of TIDWTMSHCMI, the amyloid nucleation score is -0.055 ± 0.56.

On to SFRDDICWVRWGSL, for which the amyloid nucleation score was 0.251 ± 0.23.

LPLILV came in with an amyloid nucleation score of 0.356 ± 0.8.

Substance WERMFRPHIFVLFSSGQLSS showed an amyloid nucleation score of 5.01 ± 0.052.

Substance TVWYCALSL registered an amyloid nucleation score of 10.61 ± 0.07.

Substance GMSTRQFKLLPGCREVMRAG yielded an amyloid nucleation score of 0.571 ± 0.64.

Substance PLSGWYQYIRDGVLSVWLSV displayed an amyloid nucleation score of 0.713 ± 0.74.

As to RKVVRLSHFLMCDCSRKPRR, the amyloid nucleation score is -0.072 ± 0.76.

TMLTFG: the amyloid nucleation score is -0.913 ± 0.76.

Take KLVDLKVRFDSHLDNLEVAL: the amyloid nucleation score is -0.204 ± 0.46.

In turn, YWFKSFSWFPVNIVIYNMEK registered an amyloid nucleation score of 5 ± 0.094.

In turn, WTLYKTMIMVSSVPFIIKIC showed an amyloid nucleation score of -1.2 ± 0.76.

Consider SFYVNMSSFFRSLEEV, for which the amyloid nucleation score result is “inactive”.

Regarding LLGSYI, the amyloid nucleation score entry is “inactive”.

For LAAKFCCQLSFGSFCDCIFR, the amyloid nucleation score is 7.82 ± 0.084.

Turning to KVRGPSNNVSSQKAHDRFDS, the amyloid nucleation score amounted to 0.277 ± 0.28.

Regarding TFFYMRFPGFLFSNSSNAW, the amyloid nucleation score worked out at 1.47 ± 0.24.

Substance YQGMFKFRRFDNVSVVHAMR yielded an amyloid nucleation score of -0.359 ± 0.76.

For the substance EFIDLVD, the amyloid nucleation score result is “inactive”.

TFTVKCTDGGSCF: the amyloid nucleation score was 1.01 ± 0.24.

As to LYTLTENRLRLYMIYAGLRW, the amyloid nucleation score is -0.362 ± 0.5.

EFVLKSLTNLTEIKYAVSLE: the amyloid nucleation score was determined as 2.09 ± 0.099.

In turn, TYDWEFFNDYYQM came in with an amyloid nucleation score of 0.161 ± 0.77.

On to YRLRMIFSMGMNNYVARWFH, for which the amyloid nucleation score is -1.5 ± 1.1.

As for QAHATFSILRTISAVFSPMQ, the amyloid nucleation score came to 5.973 ± 0.057.

TVHRLRNVCLL: the amyloid nucleation score is 2.51 ± 0.25.

RGFRIVLINRCVILRSV showed an amyloid nucleation score of 0.198 ± 0.26.

YWGIRVCSDFGIPEFRTS came in with an amyloid nucleation score of 2.05 ± 0.12.

For GVSVV, the amyloid nucleation score result was “inactive”.

FSRSYVPIMY came in with an amyloid nucleation score of 0.759 ± 0.8.

As for NYREMLWSDIRVVS, the amyloid nucleation score is 0.004 ± 1.1.

For the substance NKVSEFYDGVHFC, the amyloid nucleation score was -0.235 ± 1.1.

As to CHNNFNCPNVLVFLARELSI, the amyloid nucleation score is 4.99 ± 0.079.

On to NIRQVIKGVSCLHIMWEKWR, for which the amyloid nucleation score was -0.304 ± 0.48.

FLNFIFELSSWMDF had an amyloid nucleation score of -1.6 ± 1.1.

In the case of FRSKPAFRVMGVVCRGFYFL, the amyloid nucleation score is -0.637 ± 1.1.

For the substance YYSFSGRATWGRNKSFMWVA, the amyloid nucleation score was 0.089 ± 1.1.

The substance GVQYRSGESGDSASYWRLGG showed an amyloid nucleation score of 0.628 ± 0.38.

For the substance SRGSSMMQIYFL, the amyloid nucleation score stood at 5.995 ± 0.059.

In turn, MFGTMWAWFSVYACEVAWN registered an amyloid nucleation score of 0.045 ± 0.62.

As for SSLGIRNCVGTSYVMSPIIV, the amyloid nucleation score worked out at 0.178 ± 0.53.

The substance APFQRPSSPTDREYRNGALL showed an amyloid nucleation score of 1.27 ± 0.23.

The substance NGTFSCGERVIEINDDSLSD showed an amyloid nucleation score of 0.486 ± 0.8.

With RMRLSYWHCISLGLVLLRPI, the amyloid nucleation score amounted to 0.298 ± 0.39.

For MNVGTFSLRFLSFDLL, the amyloid nucleation score was -0.054 ± 1.1.

With LRMMYRFGVCYVLL, the amyloid nucleation score came out at 0.399 ± 0.31.

As to LCRYARCLIVSFVRIFGCCL, the amyloid nucleation score was -0.47 ± 1.1.

Turning to YVRGSDGSKKPWVYSAVGIF, the amyloid nucleation score was -0.793 ± 1.1.

Regarding TPVSCFTCRQCLVTGLHTLR, the amyloid nucleation score amounted to 0.466 ± 0.26.

For RGWRAGMYFACF, the amyloid nucleation score is 0.656 ± 0.42.

Consider LVLTDSAYRFFKRGDSVDKC, for which the amyloid nucleation score is 1.62 ± 0.1.

LVLTSLQHGQFVVVVSVVW came in with an amyloid nucleation score of 0.543 ± 0.31.

In the case of DGGVYTNINIFGCLVGFGGW, the amyloid nucleation score was found to be 8.006 ± 0.026.

LITTSMYLWSVHSFVLHMDD had an amyloid nucleation score of 0.545 ± 0.4.

As to LWLIKARYFLELRRLESIRQ, the amyloid nucleation score came to 0.208 ± 1.1.

Substance KNCVHE came in with an amyloid nucleation score of -0.076 ± 0.79.

On to SNGYYSNGPTLLHATTHVTV, for which the amyloid nucleation score is -0.431 ± 0.64.

Take FNALTVDQTVHSYGVYADLP: the amyloid nucleation score is 0.191 ± 0.21.

In turn, LSRCWVMSQQCKKSAGVFYA displayed an amyloid nucleation score of -0.026 ± 0.55.

For the substance WLWNNG, the amyloid nucleation score turned out to be 0.485 ± 0.74.

As to VLMDASTSVYTRSLMWKYMR, the amyloid nucleation score was -0.162 ± 0.76.

In turn, PVFCTLYHAAWSHRIRISVF registered an amyloid nucleation score of -1.57 ± 0.54.

As to SLYMFLVSALVQSYLLV, the amyloid nucleation score was -1.4 ± 0.45.
